Reference: US20050048066A1, “Identification of potential immunodominant acetylcholine receptor alpha subunit” (priority 2000, published 2005)

Tests used:
[1] = tested on: HLA-DR3 (a mix of DRB1*0301 and DRB3*0101); test: DELFIA competitive binding assay, solubilized HLA-DR3; design: species or system human; conditions: in words, from IC50
Procedure: The sequence of the AChRα subunit is shown with each of the transmembrane regions (M1-M4) indicated by a shaded box.) Ten-fold dilutions (preferably 1-100,000 nM) of unlabeled AChRα peptides were co-incubated at pH 5.5 with the biotinylated myelin basic protein peptide MBP 84-102, and the IC50 of binding to solubilized HLA-DR2 (a mix of DRB1*1501 and DRB5*0101) or HLA-DR3 (a mix of DRB1*0301 and DRB3*0101) was measured. Measurement of the IC50 is preferably done by europium-streptavidin dissociation-enhanced lenthanide fluoroimmunoassay (DELFIA) and the IC50 typically calculated by four parameter fit analysis with the software program SOFTmax Pro. FIG. 2 lists the IC50s of each AChRα peptide binding to HLA-DR2 and HLA-DR3.

[2] = target: HLA-DR2 (a mix of DRB1*1501 and DRB5*0101) (Homo sapiens, UniProt P01903+P01911+Q30154); test: DELFIA competitive binding assay, solubilized HLA-DR2; conditions: in words, from IC50 / plot of 1/IC50
From the text: Measurement of the IC50 is preferably done by europium-streptavidin dissociation-enhanced lenthanide fluoroimmunoassay (DELFIA) and the IC50 typically calculated by four parameter fit analysis with the software program SOFTmax Pro.

affinity for HLA-DR3 [1]	relative affinity for HLA-DR2 [2]	Substance
	high relative affinity	AChRα 113-126: synthetic peptide fragment of the acetylcholine receptor α subunit, residues 113-126 (TGHITWTPPAIFKS)
	high relative affinity	AChRα 419-437: synthetic peptide fragment of the acetylcholine receptor α subunit, residues 419-437 (IIGTLAVFAGRLIELNQQG)

More lines, now with the values behind:

Substance	affinity for HLA-DR3 [1]	relative affinity for HLA-DR2 [2]
AChRα 145-163: synthetic peptide fragment of the acetylcholine receptor α subunit, residues 145-163 (KLGTWTYDGSVVAINPESD)	high affinity	
AChRα 195-212: synthetic peptide fragment of the acetylcholine receptor α subunit, residues 195-212	high affinity	
AChRα 310-327: synthetic peptide fragment of the acetylcholine receptor α subunit, residues 310-327 (NWVRKVFIDTIPNIMFFS)		high relative affinity
